B1: Serine/threonine-protein kinase TBK1 (Homo sapiens), Q9UHD2 (parent)
chain: MQSTSNHLWLLSDILGQGATANVFRGRHKKTGDLFAIKVFNNISFLRPVDVQMREFEVLKKLNHKNIVKLFAIEEETTTRHKVLIMEFCPCGSLYTVLEEPSNAYGLPESEFLIVLRDVVGGMNHLRENGIVHRDIKPGNIMRVIGEDGQSVYKLTDFGAARELEDDEQFVSLYGTEEYLHPDMYERAVLRKDHQKKYGATVDLWSIGVTFYHAATGSLPFRPFEGPRRNKEVMYKIITGKPSGAISGVQKAENGPIDWSGDMPVSCSLSRGLQVLLTPVLANILEADQEKCWGFDQFFAETSDILHRMVIHVFSLQQMTAHKIYIHSYNTATIFHELVYKQTKIISSNQELIYEGRRLVLEPGRLAQHFPKTTEENPIFVVSREPLNTIGLIYEKISLPKVHPRYDLDGDASMAKAITGVVCYACRIASTLLLYQELMRKGIRWLIELIKDDYNETVHKKTEVVITLDFCIRNIEKTVKVYEKLMKINLEAAELGEISDIHTKLLRLSSSQGTIETSLQDIDSRLSPGGSLADAWAHQEGTHPKDRNVEKLQVLLNCMTEIYYQFKKDKAERRLAYNEEQIHKFDKQKLYYHATKAMTHFTDECVKKYEAFLNKSEEWIRKMLHLRKQLLSLTNQCFDIEEEVSKYQEYTNELQETLPQKMFTASSGIKHTMTPIYPSSNTLVEMTLGMKKLKEEMEGVVKELAENNHILERFGSLTMDGGLRNVDCL
partner: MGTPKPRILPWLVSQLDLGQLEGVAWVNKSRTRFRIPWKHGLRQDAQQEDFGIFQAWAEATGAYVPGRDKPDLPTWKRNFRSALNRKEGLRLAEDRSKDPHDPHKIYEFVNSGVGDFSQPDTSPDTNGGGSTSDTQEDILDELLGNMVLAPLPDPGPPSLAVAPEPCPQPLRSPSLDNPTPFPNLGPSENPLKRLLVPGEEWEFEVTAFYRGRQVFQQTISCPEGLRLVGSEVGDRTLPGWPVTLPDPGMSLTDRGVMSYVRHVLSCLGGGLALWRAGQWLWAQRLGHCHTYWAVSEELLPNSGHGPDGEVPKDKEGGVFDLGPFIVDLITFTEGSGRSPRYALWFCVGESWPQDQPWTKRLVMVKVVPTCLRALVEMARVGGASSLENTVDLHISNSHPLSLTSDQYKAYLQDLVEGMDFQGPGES
B2: Serine/threonine-protein kinase TBK1 (Homo sapiens), Q9UHD2 (parent)
chain: B1 chain

Variants of: B1
Conditions: with irf3_human IRF3, Q14653

| Variant | effect of a mutation on the interaction |
| --- | --- |
| R47H | increasing interaction strength |
| M559R | disrupting interaction strength |
| R357Q | disrupting interaction strength |
| R308Q | decreasing interaction strength |
| E696K | decreasing interaction strength |

Variants of: B2
Conditions: with optn_human OPTN

| Variant | effect of a mutation on the interaction |
| --- | --- |
| M559R | disrupting interaction strength |
| R47H | increasing interaction strength |
| K38A | with no effect |
| R308Q | with no effect |
| R357Q | decreasing interaction strength |

Variants of: B2
Conditions: with optn_human OPTN
Remark: another data set of the same source

| Variant | effect of a mutation on the interaction |
| --- | --- |
| E696K | disrupting interaction strength |
| R357Q | disrupting interaction strength |

Reference: IntAct's records for PubMed 25803835
